The values below come from paper PMC13189363.

Where “and” joins values, the source holds several entries; their conditions need not be identical. Identical values can stand only once.

In test [1] the target is DUF4297 from Bacillus ap. HMH5848 (Bacillus ap. HMH5848). The test can be described thus: cryo-EM structure.
Test [2] has the same target. The experiment in a line: mass photometry.
Test [3] addresses HerA from Bacillus ap. HMH5848 (Bacillus ap. HMH5848). The test can be described thus: cryo-EM structure.

In general, stoichiometry N refers to a count of units in the complex or per binding partner. As for “DUF4297 from Bacillus ap. HMH5848 (enzyme)”, the stoichiometry N is 12 and 4 and 6 in test [1]; 6 and 12 and 14 in test [2].

The substance HerA from Bacillus ap. HMH5848 (enzyme) returned a stoichiometry N in test [3] of 6.
